Test results as given in article doi:10.1101/2021.12.09.471704.
Changes are numbered by the printed parent chain. Read-outs that look alike come from different tables or passages of the source.

Columns and labels:
[1] = target: T1, SiAgo (complex subunit);SiAga1 (complex subunit) (Sulfolobus islandicus M164;Sulfolobus …, UniProt C4KI01;C4KI00 1-459;1-243, |); experiment: competition
T1 sequence 1: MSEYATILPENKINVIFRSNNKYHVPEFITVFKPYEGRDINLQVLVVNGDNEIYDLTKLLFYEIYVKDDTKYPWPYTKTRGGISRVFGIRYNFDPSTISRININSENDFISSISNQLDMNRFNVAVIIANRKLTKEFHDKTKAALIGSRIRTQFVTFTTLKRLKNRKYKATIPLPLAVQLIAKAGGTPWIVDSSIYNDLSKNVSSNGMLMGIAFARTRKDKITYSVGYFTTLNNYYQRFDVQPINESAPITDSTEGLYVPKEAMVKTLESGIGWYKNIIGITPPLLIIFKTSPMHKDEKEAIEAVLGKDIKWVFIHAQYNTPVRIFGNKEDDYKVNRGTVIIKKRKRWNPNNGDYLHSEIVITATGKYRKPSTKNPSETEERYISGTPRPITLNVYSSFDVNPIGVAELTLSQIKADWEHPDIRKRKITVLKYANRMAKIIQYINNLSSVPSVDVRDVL
T1 sequence 2: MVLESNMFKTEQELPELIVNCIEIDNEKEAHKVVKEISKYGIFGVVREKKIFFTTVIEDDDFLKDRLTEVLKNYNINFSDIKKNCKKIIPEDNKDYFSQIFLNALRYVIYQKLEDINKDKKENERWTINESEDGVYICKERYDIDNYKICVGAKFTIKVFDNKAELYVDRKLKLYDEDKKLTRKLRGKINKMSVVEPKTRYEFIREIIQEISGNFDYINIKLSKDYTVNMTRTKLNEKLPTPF

[2] = target: T1, SiAgo (complex subunit);SiAga1 (complex …); experiment: EMSA
[3] = target: T2, SiAgo M2;SiAga1 (complex subunit) (Sulfolobus islandicus M164;Sulfolobus …, UniProt C4KI01;C4KI00 1-459;1-243, K183A|); experiment: EMSA
T2 sequence 1: T1 sequence 1 with K183A
T2 sequence 2: T1 sequence 2

[4] = target: T3, SiAgo M1;SiAga1 (complex subunit) (Sulfolobus islandicus M164;Sulfolobus …, UniProt C4KI01;C4KI00 1-459;1-243, K142A|); experiment: EMSA
T3 sequence 1: T1 sequence 1 with K142A
T3 sequence 2: T1 sequence 2

[5] = target: T2, SiAgo M2;SiAga1 (complex subunit); experiment: EMSA; remark: listed apart in the source
[6] = target: T3, SiAgo M1;SiAga1 (complex subunit); experiment: EMSA; remark: listed apart in the source
[7] = target: T4, SiAgo (Sulfolobus islandicus M164, UniProt C4KI01 1-459); experiment: EMSA
T4 sequence: T1 sequence 1

[8] = target: T1, SiAgo (complex subunit);SiAga1 (complex …); experiment: EMSA; remark: listed apart in the source

B1: guide 5P-RNA + TDNA competitor (mixed)
RNA: UCAAAGCUUAGAUACCCUGGA
DNA: CCTCCAGGGTATCTAAGCTTTGAA
modifications: guide 5' phosphate
Q: Does B1 bind [1]?
A: binds

B2: guide 5P-RNA + TRNA competitor (mixed)
RNA 1: UCAAAGCUUAGAUACCCUGGA
RNA 2: CCUCCAGGGUAUCUAAGCUUUGAA
modifications: guide 5' phosphate
Q: Does B2 bind [1]?
A: binds

B3: guide 5P-RNA + TRNA (mixed)
RNA 1: UCAAAGCUUAGAUACCCUGGA
RNA 2: CCUCCAGGGUAUCUAAGCUUUGAA
modifications: guide 5' phosphate
Q: Does B3 bind [2]?
A: binds

B4: guide 5P-RNA + TDNA (mixed)
RNA: UCAAAGCUUAGAUACCCUGGA
DNA: CCTCCAGGGTATCTAAGCTTTGAA
modifications: guide 5' phosphate
Q: Does B4 bind [3]?
A: binds

Q: Does B4 bind [4]?
A: binds

Q: Does B4 bind [2]?
A: binds

Q: Does UCAAAGCUUAGAUACCCUGGA (ssRNA, 5' phosphate) [5P-RNA] bind [5]?
A: binds

Q: Does UCAAAGCUUAGAUACCCUGGA (ssRNA, 5' phosphate) [5P-RNA] bind [6]?
A: binds

Q: Does UCAAAGCUUAGAUACCCUGGA (ssRNA, 5' phosphate) [5P-RNA] bind [7]?
A: binds

Q: Does UCAAAGCUUAGAUACCCUGGA (ssRNA, 5' phosphate) [5P-RNA] bind [8]?
A: binds
